Data on three molecules can be found in paper PMC11975290, “Two redox-responsive LysR-type transcription factors control the oxidative stress response of Agrobacterium tumefaciens” (Nucleic Acids Research, 2025).

The target of data set [1] is T1, LsrB-His (Agrobacterium tumefaciens) (UniProt A9CI74).
T1 sequence: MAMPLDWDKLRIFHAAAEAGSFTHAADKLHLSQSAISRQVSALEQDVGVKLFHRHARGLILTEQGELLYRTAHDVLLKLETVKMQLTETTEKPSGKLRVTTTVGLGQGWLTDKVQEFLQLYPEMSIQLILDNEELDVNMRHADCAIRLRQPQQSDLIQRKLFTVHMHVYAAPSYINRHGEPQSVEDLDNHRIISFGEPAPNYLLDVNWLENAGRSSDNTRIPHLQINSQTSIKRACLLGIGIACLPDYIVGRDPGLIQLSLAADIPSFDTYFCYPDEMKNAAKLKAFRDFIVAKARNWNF
The data set can be described thus: EMSA. The following applies: Radioactive EMSA: 20 min at 30 C, 6% polyacrylamide gel, buffer by reference (Müller et al.); ArgP agarose EMSA: 10 mM Tris-HCl pH 8.5, 10 mM MgCl2, 100 mM …. In general terms: Mobility shift assays separate free from complexed probe on a gel.

The target of data set [2] is T2, His-ArgP (Escherichia coli (ASKA collection)) (UniProt P0A8S1).
T2 sequence: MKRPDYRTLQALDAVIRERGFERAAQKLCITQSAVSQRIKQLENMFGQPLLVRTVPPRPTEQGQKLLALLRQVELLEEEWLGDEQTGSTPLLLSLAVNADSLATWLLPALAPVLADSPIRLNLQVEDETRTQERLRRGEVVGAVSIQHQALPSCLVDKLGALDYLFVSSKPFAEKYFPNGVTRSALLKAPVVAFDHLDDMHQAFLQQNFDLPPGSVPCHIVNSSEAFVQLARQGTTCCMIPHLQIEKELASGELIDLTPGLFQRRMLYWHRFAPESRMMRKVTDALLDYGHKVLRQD
The data set can be described thus: EMSA. The following applies: Radioactive EMSA: 20 min at 30 C, 6% polyacrylamide gel, buffer by reference (Müller et al.); ArgP agarose EMSA: 10 mM Tris-HCl pH 8.5, 10 mM MgCl2, 100 mM ….

Data set [3] concerns the molecule itself. The data set can be described thus: cryo-EM structure; single-particle cryo-EM of purified LsrB (1.2 mg/ml), without DNA; DNA-binding domain excluded from the analysis; AlphaFold 3 model of the SBD dimer rigid-body fitted into the 3.9 Å map.

Consider “GCGGCTAAACGTCTTTTCGCTGGGGATGGCGGAGAAGCCGACAATCCACCTTAGGTTTTGGAGAACACGAAAGATGAAATTTAATCGCAGACATATCGCACTGGCCGCTTTGGTCTCGACGGGCCTGGTCACGCAGGCTTCTGCCGCTGATGATG (double strand) [ampC promoter 155 bp]”, for which, in data set [1], the binding entry is on record as “no binding”. Regarding “CGCTTCTGTGGTTTTAGTTTCGGAAACCATACAAAAATGCTATCCATCTTAAAAATGAGGCGCGATTGTAGCAGACGATTGGCAATCCTTCCGGCAGAAATACACGGTTATAAGACACCTTCATGATCGCCCAGGGATTATAAGTAAAGCAGCCAATCTCTTTTCTGGCGAATGCATGCTGAAGGCGCTGCGTCACGAAATCGACACAGCACCAGCATGTTCTTGTACAGCAACTTAACGCGGCACATTTGCGGGATCGCAATAGTCCAGAAAGCG (double strand) [lysP promoter 276 bp]”, in data set [2], the binding entry is “binds”.

B1: LsrB (LysR-type symbiosis regulator B) of Agrobacterium tumefaciens (natural protein)
chain: MAMPLDWDKLRIFHAAAEAGSFTHAADKLHLSQSAISRQVSALEQDVGVKLFHRHARGLILTEQGELLYRTAHDVLLKLETVKMQLTETTEKPSGKLRVTTTVGLGQGWLTDKVQEFLQLYPEMSIQLILDNEELDVNMRHADCAIRLRQPQQSDLIQRKLFTVHMHVYAAPSYINRHGEPQSVEDLDNHRIISFGEPAPNYLLDVNWLENAGRSSDNTRIPHLQINSQTSIKRACLLGIGIACLPDYIVGRDPGLIQLSLAADIPSFDTYFCYPDEMKNAAKLKAFRDFIVAKARNWNF
notes: LsrB, LysR-type transcriptional regulator of Agrobacterium tumefaciens (atu2186); also called Atu2186; LsrB^His; source: E. coli BL21 (DE3), purified (His-tagged or Strep-tagged; Strep-Tactin resin for the Strep-tagged form)
Broadly, the stoichiometry N is the number of molecules, sites or subunits per partner or assembly. B1: the “stoichiometry N” value in data set [3] was 2.
